Laboratory results: patent publication US20250340632A1 (OSE IMMUNOTHERAPEUTICS, published 2025)
Read-outs that look alike come from different tables or passages of the source. Each block holds one molecule with its values, some of them ahead of it.

Key:
[1] = target: human SIRPg protein at the surface of cells (human T lymphocyte Jurkat cell line; T cells in PBMC) (human) (UniProt Q9P1W8); assay: cytofluorometry on Jurkat cells, % of positive cells (not the MFI readout of Table 5)
[2] = target: human SIRPg protein at the surface of cells (human T lymphocyte Jurkat cell line; T cells in PBMC) (human) (UniProt Q9P1W8); assay: cytofluorometry (MFI) on human Jurkat cells, ED50
[3] = target: T1, human SIRPg protein at the surface of cells (human T lymphocyte Jurkat cell line; T cells in PBMC) (human, UniProt Q9P1W8 29-387); assay: cytofluorometry (MFI) on human Jurkat cells, ED50
T1 construct: whole, on cells; also called SIRPg on Jurkat cells
Description: To measure binding of mouse anti-hSIRPg on human cell lines, cells were first washed in cold-PSE (Phosphate Buffer Saline with 2% of heat-inactivated bovine serum, 2 mM EDTA), blocked for 30 min at room temperature with a mix of 50-fold diluted human Fc-block (#564220, BD Pharmingen) and 20-fold diluted/heat-inactivated human serum (SAB, # H4522-100, Sigma Aldrich) and then incubated for 10 min on ice to slow the cell metabolism. Antibodies in range were incubated for 30 min on ice, and cells were washed with cold-PSE before staining for 30 min on ice with an Alexa 647-labelled goat anti-mouse IgG at 5 μg/ml (#A21236; Fisher Scientific, Illkirch, France). Samples were analyzed on CytoFlex cytofluorometer (Beckman Coulter France, Villepinte).

[4] = target: T2, recombinant human SIRPg protein with His Tag (#11828-H08H, Sino Biological) (human, UniProt Q9P1W8 29-360, biotinylated in the ELISA binding assay (sites not given)); assay: SIRPg binding ELISA, DO 450 nm (legend: immobilized SIRPg-His at 1 µg/ml; method 1.4: captured antibody, biotinylated SIRPg)
T2 construct: Bought protein; also called human SIRPg His; SIRPg-His

[5] = target: T3, recombinant human SIRPa protein with His Tag (#11612-H08H, Sino Biological) (human, UniProt P78324 31-370); assay: ELISA on immobilized SIRPa, ED50
T3 construct: Bought protein; also called human SIRPa His; SIRPa-His

[6] = target: human SIRPa on SIRPa positive U937 human monocyte cell line (human) (UniProt P78324); assay: binding to U937 cells expressing SIRPa, ED50
[7] = target: T3, recombinant human SIRPa protein with …; assay: competition ELISA on immobilized SIRPa-His against biotinylated CD47-Fc at 3 µg/ml, streptavidin-peroxidase detection [lower graph]
[8] = target: T2, recombinant human SIRPg protein with …; assay: SIRPg binding ELISA, DO 450 nm (legend: immobilized SIRPg-His at 1 µg/ml; method 1.4: captured antibody, biotinylated SIRPg); remark: listed apart in the source

B1: 2H9 recombinant chimeric anti-SIRPg antibody (antibody, human IgG4 S228P, kappa, V domains shown)
VH: DVQLVESGGGLVQPGGSRKLSCAASGFTFSSFGMHWVRQAPEKGLEWVAYISSGSTTIYYADTVKGRFTISRDNPKNTLFLQMTSLRSEDTAMYFCARWTVVTNCFDYWGQGTTLTVSS
VL: QIVLTQSPALMSASPGEKVTMTCSASSSISSMYWYQQKPRSSPKPWIYLTSNLASGVPARFSGSGSGTSYSLTISSMEAEDAATYYCQQWSSNLTFGAGTKLELKR
notes: Mouse VH/VL on human IgG4 (S228P)
EC50 [3]: 0.426 µg/mL

B2: 3H8 recombinant chimeric anti-SIRPg antibody (antibody, human IgG4 S228P, kappa, V domains shown)
VH: QIQLVQSGPELKKPGETVNISCMASGYSFTNYGMNWVKQAPGKGLKWMGWINTYTGEPTYADDFKGRFAFSLETSASTAYLQINNLKNEDMATYFCARQPYDYVPSFPYWGQGTLVTVSA
VL: DIVMTQSHKFMSTSVGDRVNITCKASQDVSTAVAWYQLKPGQSPKLLIYWASIRHTGVPDRFTGSGSGTDYTLTISSVQAEHLALYYCQQHYSTPWTFGGGTKLEIKR
notes: Mouse VH/VL on human IgG4 (S228P) and human CL kappa
EC50 [3]: 0.083 µg/mL

B6: 11B5 recombinant chimeric anti-SIRPg antibody (antibody, human IgG4 S228P, kappa, V domains shown)
VH: EVQLVESGGDLVKPGGSLKLSCAASGFAFSDYYMYWVRQTPEKRLEWVATISDDGIYTYYPDSVKGRFTISRDNAKNNLFLQMSSLKSEDTAMYYCARGGYRDYYAMDYWGQGTSVTVSS
VL: DIQMTQSPASLSASVGETVTITCRASENIYSYLAWYQQKQGKSPQLLVYNGITLAEGVPSRFSGSGSGTQFSLKINSLQPEDFGDYYCQHHYGSPRTFGGGTTLEIKR
notes: as for B2
EC50 (read off the curve) [4]: ~6 ng/mL
EC50 [3]: 0.195 µg/mL
EC50 (read off the curve) [8]: ~7 ng/mL

The remaining lines, values ahead:

EC50 (read off the curve) [1]: 0.2 µg/mL
EC50 [2]: 3.88 µg/mL
Molecule: OX119 antibody (SantaCruz reference sc-53114)

EC50 (read off the curve) [1]: 0.2 µg/mL
EC50 [2]: 6.97 µg/mL
Molecule: LSB2.20 antibody (Biolegend, reference 336602)

EC50 (read off the curve) [4]: ~6 ng/mL
EC50 [5]: 4.69 ng/mL
EC50 [6]: 0.0719 µg/mL
IC50 (read off the curve) [7]: ~700 ng/mL
EC50 (read off the curve) [8]: ~10 ng/mL
B3: Kwar23 antibody (antibody, V domains shown)
VH: EVQLQQSGAELVKPGASVKLSCTASGFNIKDYYIHWVQQRTEQGLEWIGRIDPEDGETKYAPKFQDKATITADTSSNTAYLHLSSLTSEDTAVYYCARWGAYWGQGTLVTVSS
VL: QIVLTQSPAIMSASPGEKVTLTCSASSSVSSSYLYWYQQKPGSSPKLWIYSTSNLASGVPARFSGSGSGTSYSLTISSMEAEDAASYFCHQWSSYPRTFGAGTKLELK

EC50 [3]: 0.156 µg/mL
EC50 (read off the curve) [8]: ~20 ng/mL
B4: 26F10 recombinant chimeric anti-SIRPg antibody (antibody, human IgG4 S228P, kappa, V domains shown)
VH: EVQLQQSGTELVRSGASVKLSCTTSGFNIKDYYMHWVKQRPEQGLEWIGWIDPENGDTEYAPKFQGKATMTADTSSNTAYLQLSSLTSEDTAVYYCNAYDGYYGAMDYWGQGTSVTVSS
VL: DVVMPQTPLSLPVSLGDQASISCRSSQSLVHSNGNTYLHWYLQKPGQSPKLLIYKVSNRFSGVPDRFSGSGSGTDFTLKISRVEAEDLGVYFCSQNTHVPLTFGAGTKLELKR
notes: as for B2

EC50 [3]: 0.281 µg/mL
B5: 13F7 recombinant chimeric anti-SIRPg antibody (antibody, human IgG4 S228P, kappa, V domains shown)
VH: QVQLQQSGAELVRPGVSVKVSCKGSGYTFTDYAMHWVKQSHPKSLEWIGVIGTYYGDAYYNQNFKGKATMTVDKSSSTAYMELARLTSEDSAIYYCARRAGTSDWFAYWGQGTLVTVSA
VL: NIVLTQSPASLAVSLGQRATISCRASESVDSYGNSFMHWYQQKPGQPPKLLIYRASNLESGIPARFSGSGSRTDFTLTINPVEADDVATYYCQQSNEDPPTFGGGTKLEIKR
notes: as for B2
